Experimental data as given in US20260055205A1 (published 2026).
Changes are numbered by the printed parent chain. Blank lines part the entries; values can stand above or below the binder they belong to.

Biological target: T1, human PSMA (human, UniProt Q04609 44-750, limits assumed)
T1 construct: also called huPSMA; hPSMA
Assay: binding screen

T1 sequence (Q04609 44-750 limits assumed): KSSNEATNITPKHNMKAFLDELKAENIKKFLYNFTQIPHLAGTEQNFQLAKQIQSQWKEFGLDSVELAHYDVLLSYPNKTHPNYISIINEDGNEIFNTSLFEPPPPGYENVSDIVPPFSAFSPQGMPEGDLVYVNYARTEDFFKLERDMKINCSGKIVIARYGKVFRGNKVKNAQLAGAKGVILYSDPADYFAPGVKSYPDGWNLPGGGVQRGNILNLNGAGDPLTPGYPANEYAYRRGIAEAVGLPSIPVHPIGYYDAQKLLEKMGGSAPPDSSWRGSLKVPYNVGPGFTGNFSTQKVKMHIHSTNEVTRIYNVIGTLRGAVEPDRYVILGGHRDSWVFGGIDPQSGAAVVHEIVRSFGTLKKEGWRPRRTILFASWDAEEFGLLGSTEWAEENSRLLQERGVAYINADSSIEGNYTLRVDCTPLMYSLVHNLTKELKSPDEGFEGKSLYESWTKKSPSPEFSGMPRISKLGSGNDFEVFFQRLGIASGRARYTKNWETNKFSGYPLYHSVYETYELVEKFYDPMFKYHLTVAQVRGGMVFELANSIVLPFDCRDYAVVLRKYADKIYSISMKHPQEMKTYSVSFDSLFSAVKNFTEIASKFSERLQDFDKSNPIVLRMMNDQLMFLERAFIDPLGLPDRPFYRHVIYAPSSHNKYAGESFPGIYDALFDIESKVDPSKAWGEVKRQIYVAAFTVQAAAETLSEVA

B5: PSMA.271 (bispecific antibody, V domains shown)
VH: QVQLVESGGGVVQPGRSLRLSCAASGRTFGIYVMGWFRQAPGKEREFVGAISWSGSNRKVSDSVKGRFTISRDNSKNTLYLQMNSLRAEDTAVYYCAASNRTYGRTWYDFNESDYWGQGTQVTVSS
notes: TCE with CD3.23; also called AC3480
- Kd: 9.1 nM

B6: PSMA.260 (bispecific antibody, V domains shown)
VH: B5 VH with V33A, F37V, R101K, T102L
notes: TCE with CD3.23; also called AC3469
- Kd: 11.4 nM

B8: PSMA.274 (bispecific antibody, V domains shown)
VH: B5 VH with M34W, F37V, G49A, I51M
notes: TCE with CD3.23; also called AC3483
- Kd: 39.6 nM

B9: PSMA.273 (bispecific antibody, V domains shown)
VH: B5 VH with M34F, F37V, G49A, I51M
notes: TCE with CD3.23; also called AC3482
- Kd: 16.6 nM

B10: PSMA.272 (bispecific antibody, V domains shown)
VH: B5 VH with V33A, F37V, G49A, I51M
notes: TCE with CD3.23; also called AC3481
- Kd: 504 nM

B11: PSMA.280 (bispecific antibody, V domains shown)
VH: B5 VH with V33A, F37V, G49A, I51M, T102M
notes: TCE with CD3.23; also called AC3489
- Kd: 16.3 nM

B15: PSMA.275 (bispecific antibody, V domains shown)
VH: B5 VH with G49A, I51M
notes: TCE with CD3.23; also called AC3484
- Kd: 20.5 nM

B20: PSMA.264 (bispecific antibody, V domains shown)
VH: B5 VH with V33A, F37V, G49A, I51M, R101K, T102L
notes: TCE with CD3.23; also called AC3473
- Kd: 18.6 nM

B22: PSMA.276 (bispecific antibody, V domains shown)
VH: B5 VH with V33A, F37V, T102M
notes: TCE with CD3.23; also called AC3485
- Kd: 10.5 nM

B24: PSMA.268 (bispecific antibody, V domains shown)
VH: B5 VH with V33A, F37V
notes: TCE with CD3.23; also called AC3477
- Kd: 131 nM

Now those with a lower Kd, led by results:

- Kd: 3.4 nM
B1: PSMA.256 (bispecific antibody, V domains shown)
VH: B5 VH with F37Y, G49A, I51M, T102L
notes: TCE with CD3.23; also called AC3467

- Kd: 2.1 nM
B2: PSMA.261 (bispecific antibody, V domains shown)
VH: B5 VH with M34F, F37V, R101K, T102L
notes: TCE with CD3.23; also called AC3470

- Kd: 3.9 nM
B3: PSMA.278 (bispecific antibody, V domains shown)
VH: B5 VH with M34W, F37V, T102M
notes: TCE with CD3.23; also called AC3487

- Kd: 4.6 nM
B4: PSMA.266 (bispecific antibody, V domains shown)
VH: B5 VH with M34W, F37V, G49A, I51M, R101K, T102L
notes: TCE with CD3.23; also called AC3475

- Kd: 3.9 nM
B7: PSMA.265 (bispecific antibody, V domains shown)
VH: B5 VH with M34F, F37V, G49A, I51M, R101K, T102L
notes: TCE with CD3.23; also called AC3474

- Kd: 6.5 nM
B12: PSMA.270 (bispecific antibody, V domains shown)
VH: B5 VH with M34W, F37V
notes: TCE with CD3.23; also called AC3479

- Kd: 5.3 nM
B13: PSMA.281 (bispecific antibody, V domains shown)
VH: B5 VH with M34F, F37V, G49A, I51M, T102M
notes: TCE with CD3.23; also called AC3490

- Kd: 5.5 nM
B14: PSMA.269 (bispecific antibody, V domains shown)
VH: B5 VH with M34F, F37V
notes: TCE with CD3.23; also called AC3478

- Kd: 8.7 nM
B16: PSMA.282 (bispecific antibody, V domains shown)
VH: B5 VH with M34W, F37V, G49A, I51M, T102M
notes: TCE with CD3.23; also called AC3491

- Kd: 2.3 nM
B17: PSMA.279 (bispecific antibody, V domains shown)
VH: B5 VH with T102M
notes: TCE with CD3.23; also called AC3488

- Kd: 5.6 nM
B18: PSMA.267 (bispecific antibody, V domains shown)
VH: B5 VH with G49A, I51M, R101K, T102L
notes: TCE with CD3.23; also called AC3476

- Kd: 2.3 nM
B19: PSMA.257 (bispecific antibody, V domains shown)
VH: B5 VH with F37Y, G49A, T102L
notes: TCE with CD3.23; also called AC3468

- Kd: 3.5 nM
B21: PSMA.283 (bispecific antibody, V domains shown)
VH: B5 VH with G49A, I51M, T102M
notes: TCE with CD3.23; also called AC3492

- Kd: 3.1 nM
B23: PSMA.277 (bispecific antibody, V domains shown)
VH: B5 VH with M34F, F37V, T102M
notes: TCE with CD3.23; also called AC3486

- Kd: 4.1 nM
B25: PSMA.284 (bispecific antibody, V domains shown)
VH: B5 VH with V33A, F37V, T102L
notes: TCE with CD3.23; also called AC3493
